assay: soluble on expression in E. coli; label from the status in PepcDB or PDB records

Sequence	soluble on expression in E. coli
MSLSNNKQSSTNDGKISIVTSTNVYADIAKNIVGKYGSAKAIIKNSATDPHDFEPTTQDAKELSSTNIIVANGLGYDSWMNKLASSVDKKPVLVGEELMKLKKGANPHIWYSLSMPTEYVDYLVKRLSKIDSKHKAYFEANGKKYLAKINQVKALAKNSKKTDKMVFVSEPVFDYALAEAGYKIGDKDFEKAVENNTDPSPKTINRMTNDIKNKKIAFFVNNTQSSSSTVKTFVKLAKQNNIPVLNVRETIPNHTTYLNWMKENYQNLANISKEGHHHHHH	not soluble
MFNDLESKLQSLLERNITSVLELENWLFDELRVNAEIEEKITSSLIATYRDTDNRNMRDLHMYNQNTIQPLLKRYNAKFDQKFIECPFSNLLDERKYEFMKKARFVKSKMFNEKNIALSIKGQECITKYREIMSNITINWEGEQKTYAHVKAKLDNPNRAIRKKAWYALCEARSVVKPEVDRIMNELIQLRNEIALNAGFNNYSEYAFKQKNRDYSIDDCYKLHESIEKYVVPIWKQLGSISKKNLDVKTYRPWDLSPCNLPKAPFQNAINLLDGVEEMFRTTDLYFYEKFIHIRKAGCIDVEERENKAAGAICFTLPHSKEVFVYSNFSPSFYAINALIHEVGHAFHFYKQFKNDSSMQERYLREEVAELYSLSLELLVMDKLNVFYKQEDEYKEVQRVQIYRALSLLMSSIAGDVFQHWIYENPNHTPEERDKKYAEICKRYQYSTVDIAGLEDEIGASWIESFHYVQFPFYKIEYAIAQIGAMQLFQIYWEDPEKAIDFFKEGASADWNLSIQEIYEKTGVTFDFSEERIESTASVILDLINELK	not soluble
MVPLVAVVSGPRAQLFACLLRLGTQQVGPLQLHTGASHAARNHYEVLVLGGGSGGITMAARMKRKVGAENVAIVEPSERHFYQPIWTLVGAGAKQLSSSGRPTASVIPSGVEWIKARVTELNPDKNCIHTDDDEKISYRYLIIALGIQLDYEKIKGLPEGFAHPKIGSNYSVKTVEKTWKALQDFKEGNAIFTFPNTPVKCAGAPQKIMYLSEAYFRKTGKRSKANIIFNTSLGAIFGVKKYADALQEIIQERNLTVNYKKNLIEVRADKQEAVFENLDKPGETQVISYEMLHVTPPMSPPDVLKTSPVADAAGWVDVDKETLQHRRYPNVFGIGDCTNLPTSKTAAAVAAQSGILDRTISVIMKNQTPTKKYDGYTSCPLVTGYNRVILAEFDYKAEPLETFPFDQSKERLSMYLMKADLMPFLYWNMMLRGYWGGPAFLRKLFHLGMS	not soluble
EDSKALDEVVVVAFGTQKKESMISSIETIKPAELKVPSSNLTTALAGRMSGVIAYQRSGEPGKDNADFFIRGVTTFGYKKDPLILIDGIETTTTELARLQPDDIAAFSILKDATATALYGARGANGVIQVATKEGKEGA	not soluble
MGSDKIHHHHHHMTPDEVLRIASMHAVRGEYETALSLLRQLHAFIPDDIQVMRALGIVLANSGDHEAALPFLHQVAQRQCTPDNVMGLIKVLGAMRRFPDIDHVCSVVWPHIGDELAFLGEWGYANLLMERFDRALEILGKALALDPHFRPALHNGASALVRSGRGEEAVSMYSRLGRAWASTEAVARDFVGEYAALSQSYDDNPLHHYFSARLVRLVQDARPEAMPDSVLELGCGSGLLSQALPQKPDRLVGIDISPDMLARARTRGAYSSLLCGDLVEVMAGLEEPFDAVMSAGVLCYLPDLRKVFANVARLLSPGGVFAFSVDPVGDDMEIAEMEPGEFAHSRPYLRALAAETGLTEIRIDIDLHRGAPGFWCSFGKAG	not soluble
MSERVCAVIVTYNRKALLRECLKAVLSQTRPPDHVLVVDNASTDGTPEMLQEEFPQVEVLRLPENQGGAGGFHEGMKRAYEQGVDWLWLMDDDTIPKAKALEALLEAARLPLDPRPRVLASRQLLPNGLPHPTTAFVNPTDPRHPFLWLRLRPRYRPIRWALFTSVLLHRSLVEEHGLPHKAFFIWEDDLEYTARALRRGLGLQVRDSEVIHKSASKPYISATTGENRLFYGVRNRIWVLRSPAFGPLGKAFLALQLLFGLLTYLAFHPSQKSLQEIGRALRAGLTTSPCLEHHHHHH	not soluble
MGSDKIHHHHHHMFFEGVEQLIEEILKLRKQGLSFRKIAQALNTTVGKVHYRYKKHEELQHQKGQAKPAAKGEWQLPGSYPVTEITLLPQGPTTLYAFWDTSEQTRGLVSYQTDKDWEQLEKRLRLYDVTSLLFDGRRANRYVDIHLPEMTNNWLIEHVEPNCTYLIDLGVITPSGAFLPVVRSTPIETPRQRNDQYNFRKEDVLDWQYGLSEEPKWLEHFSTYSYYEKTK	not soluble
MGSDKIHHHHHHMLKVSDLTVGNNFVHNVSFEVNPGERVGIIGESGSGKSLTALSIMGLTDLPTTGQITFNGKPSATFRGTRIAMVFQEPMSALNPLMRIGRQIEEMMTLHGASKKDARARLKSLLIDVSLPERTASAYPHELSGGQRQRALIAMALANDPDLLICDEPTTALDVVVQKQIVDLLLRLTKERGTALLFITHDLGLIARTCERLLVMKSGETVERGDTEAILRSPAHSYTQQLLDASILDQPEIASDSGAPVVIDVEEASKSFKETTALHKVSLAVRKGDLLGIVGGSGSGKTTLLKLIAGLDKPTTGTVAVTGGVQMVFQDPQSSLNPRMKIKDIVAEPLLGWNAAEKTTRVAEVITQVGLSPDVLDRYPHEFSGGQRQRISIARALAIKPAILLADEPVSALDVSVRKQVLDLLQQLVEEYGITLVFVSHDLAVVRHLCTTVWVMEQGRVLEQGPIDSVYDHPQTEYTKELLDAVPRLSL	not soluble
MARVTTGITSSHIPALGAAIQTGTSDNDYWGPVFKGYQPIRDWIKQPGNMPDVVILVYNDHASAFDMNIIPTFAIGCAETFKPADEGWGPRPVPDVKGHPDLAWHIAQSLILDEFDMTIMNQMDVDHGCTVPLSMIFGEPEEWPCKVIPFPVNVVTYPPPSGKRCFALGDSIRAAVESFPEDLNVHVWGTGGMSHQLQGPRAGLINKEFDLNFIDKLISDPEELSKMPHIQYLRESGSEGVELVMWLIMRGALPEKVRDLYTFYHIPASNTALGAMILQPEETAGTPLEPRKVMSGHSLAQA	soluble
MSLKLIGLLMLSYPLQAAPTDLSRYLETQLKEDAREALNSYLQQQGWSASEVDYQVWLSPAVTHLPPCQQAIRLQAGGQYRQPWGRRPYLAECTEPAWQLRARVEVTLMLPVWVTAQEIQKGQTIRTGDLVEKSLDISRLQRGFVPSSESLVGSKSNRNLRMGQLIGELDLQKAWAIREGEGVLIRAGLDGFSATTRGKALANGAIGDGIKVRNISSGKEIQAWVIEKGEVETRFEGHHHHHH	not soluble
MTELKDRLQVADKEKWNLTDIYDTIEDWESDFHKIEVLTNELHEFNGNIHDGNSLLAYLTKSEEISSIISLMFAYARLQSDLDTRDTDAQSLVDKVSQLHVKVSAAKSFFSPFLLSVDENTLHTYIEEAEGLQYYKEDLFELYRYKKHVLNKDQEEILSQMGEALSSPQHTYGMLNNADILFGEVTSNDGEKVTLTRGMYAKLIEDESREKRKEAYKAYYKPYVQLKNSIASTLSAAIKNNVTVSKLRKYPSALEKSLFGDMVPKEVYENLIETTKKNIQSLHTYNKLRKEKLNVDELRQYDLSVDLVQGVKQDIPYDNAFDIMIESLAPLGEEYIETLKSFKDKRYIDVRETPGKCSGAYNFGVYGVHPFILLNHHDDLNSLFTLTHECGHGMHTHYSHGYQPRISAHYTIFVAEVASTVNEVLLIHHLLKEAKDANVRNHLVNHFIEKFKGTFFTQIMFAEFEKITHEMAQQGKPLNAQVFSDVYENLFREYNGDSLVFDEEVKYGWARIPHFYRPFYVYKYATGFASAIQIADKLLSGDPNAQKNYLEFLKGGSSDYPLNLLKKAGVDLTTPEPIESALNRFSELVEEFSTL	not soluble
MTTLTLAELATITGGELFGDPTALVSAVAPMDKAQLGHVTFLSNPKYSKHLGDCKATVIMVKTSERELCPSNALVVADPYVAFAKVAQALDSTPSPAHGIAPSAVIAEDAKLGHNVSIGANAVIESGVQLGDNVVIGAGCFIGKQARLGDNTKLWANVTIYHKVEIGSDCLIQSGTVIGADGFGYANERGEWIKIPQLGSVRIGDRVEIGACTTIDRGALDDTVIEDNVIIDNQLQIAHNVHIGYGSALAGGTVIAGSTRIGKYCIIGGASVINGHIEIADGVTITGMGMVMRSIEEKGMYSSGIPLQTNKEWRKTAARVHRIDDMHKRLKALEKLLEQSDTVQPDNSQAE	not soluble

Reference: the DeepSol protein solubility set
